Test results published in article PMC12041195 (Nature Communications, 2025).

Target: trimeric HA protein of A/Victoria/361/2011 (H3N2) (Influenza A virus A/Victoria/361/2011 …, UniProt A0A097PF39, strain)
Experiment: negative-stain electron microscopy

B1: IgM-F045-092 (antibody, V domains shown)
VH: EVQLVESGAEVKKPGSSVKVSCRASGTFYKYAINWVRQAPGQGLEWMGGIIPFFGTTNYAQKFQGRLTITADGSTNTAYMQLDSLRSEDTAVYYCAGPSITESHYCLDCAAKDYYYGLDVWGQGTTVTVSS
VL: not shown
  binding result: binds
